Experimental data from patent US20250163162A1.

T1: IL10Rα/IL2Rγ receptor (human) (UniProt Q13651)
T1 sequence (looked up) 1: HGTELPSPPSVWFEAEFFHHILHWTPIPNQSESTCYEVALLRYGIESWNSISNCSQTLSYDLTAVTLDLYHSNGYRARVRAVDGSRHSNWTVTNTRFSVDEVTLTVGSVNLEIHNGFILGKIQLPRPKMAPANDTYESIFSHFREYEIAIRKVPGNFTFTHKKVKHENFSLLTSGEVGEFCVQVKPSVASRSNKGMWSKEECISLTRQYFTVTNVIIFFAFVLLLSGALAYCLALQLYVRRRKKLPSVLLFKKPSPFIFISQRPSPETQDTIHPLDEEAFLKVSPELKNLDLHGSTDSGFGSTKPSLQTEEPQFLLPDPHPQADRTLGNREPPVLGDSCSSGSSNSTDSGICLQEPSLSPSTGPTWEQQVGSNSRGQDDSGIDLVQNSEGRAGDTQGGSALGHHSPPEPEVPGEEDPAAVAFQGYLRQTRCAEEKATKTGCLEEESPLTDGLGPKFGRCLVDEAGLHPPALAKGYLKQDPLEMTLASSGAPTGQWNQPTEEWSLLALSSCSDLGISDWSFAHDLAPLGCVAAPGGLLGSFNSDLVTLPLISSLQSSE
T1 sequence (looked up) 2: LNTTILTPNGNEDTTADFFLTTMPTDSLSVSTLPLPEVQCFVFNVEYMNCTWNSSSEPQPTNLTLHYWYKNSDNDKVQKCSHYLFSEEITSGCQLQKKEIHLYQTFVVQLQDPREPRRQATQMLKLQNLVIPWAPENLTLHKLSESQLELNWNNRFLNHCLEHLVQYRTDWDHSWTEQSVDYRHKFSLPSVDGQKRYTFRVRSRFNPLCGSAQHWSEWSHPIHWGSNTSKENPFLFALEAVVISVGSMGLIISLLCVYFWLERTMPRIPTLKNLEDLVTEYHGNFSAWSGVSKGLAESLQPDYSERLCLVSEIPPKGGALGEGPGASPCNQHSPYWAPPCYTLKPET

B1: hIL10Ra_VHH14 - hIL2Rg_VHH19, linker GS, tag his (bispecific antibody, not shown: small tags and cut ends)
chain: QVQLQESGGGSVQAGGSLRLSCGASGYTYSSYCMGWFRQVPGKEREGVAVIDSDGSTSYADSVKGRFTISKDNGKNTLYLQMNSLKPEDTAMYYCAADLGHYRPPCGVLYLGMDYWGKGTQVTVSSGSQVQLQESGGGSVQAGGSLRLSCTASGFTFDDREMNWYRQAPGNECELVSTISSDGSTYYADSVKGRFTISQDNAKNTVYLQMDSVKPEDTAVYYCAADFMIAIQAPGAGCWGQGTQVTVSS
B2: hIL10Ra_VHH14 - hIL2Rg_VHH19, linker GGGS, tag Fc (bispecific antibody, not shown: a dimerising Fc or GST)
chain: QVQLQESGGGSVQAGGSLRLSCGASGYTYSSYCMGWFRQVPGKEREGVAVIDSDGSTSYADSVKGRFTISKDNGKNTLYLQMNSLKPEDTAMYYCAADLGHYRPPCGVLYLGMDYWGKGTQVTVSSGGGSQVQLQESGGGSVQAGGSLRLSCTASGFTFDDREMNWYRQAPGNECELVSTISSDGSTYYADSVKGRFTISQDNAKNTVYLQMDSVKPEDTAVYYCAADFMIAIQAPGAGCWGQGTQVTVSS
B3: hIL10Ra_VHH14 - hIL2Rg_VHH19, linker GGGS, tag his (bispecific antibody, not shown: small tags and cut ends)
chain: B2 chain
B4: hIL10Ra_VHH14 - hIL2Rg_VHH19, No linker, tag his (bispecific antibody, not shown: small tags and cut ends)
chain: QVQLQESGGGSVQAGGSLRLSCGASGYTYSSYCMGWFRQVPGKEREGVAVIDSDGSTSYADSVKGRFTISKDNGKNTLYLQMNSLKPEDTAMYYCAADLGHYRPPCGVLYLGMDYWGKGTQVTVSSQVQLQESGGGSVQAGGSLRLSCTASGFTFDDREMNWYRQAPGNECELVSTISSDGSTYYADSVKGRFTISQDNAKNTVYLQMDSVKPEDTAVYYCAADFMIAIQAPGAGCWGQGTQVTVSS

Target: T1, IL10Rα/IL2Rγ receptor (human)
Assay: cell-based or functional assay

Row | Binder | Granzyme A secretion, CD8 T cells, at 0 µM | Granzyme A secretion, CD8 T cells, at 0.0001 µM | Granzyme A secretion, CD8 T cells, at 0.001 µM | Granzyme A secretion, CD8 T cells, at 0.01 µM | Granzyme A secretion, CD8 T cells, at 0.1 µM | Granzyme A secretion, CD8 T cells, at 1 µM | Granzyme A secretion, CD8 T cells, at 10 µM | Granzyme A secretion, CD8 T cells, at 100 µM | Granzyme B secretion, CD8 T cells, at 0 µM | Granzyme B secretion, CD8 T cells, at 0.0001 µM
1 | B1 | 25200 pg/mL | 19900 pg/mL | 22700 pg/mL | 25900 pg/mL | 26100 pg/mL | 27900 pg/mL | 28600 pg/mL | 28400 pg/mL | 77700 pg/mL | 49200 pg/mL
2 | B2 | 25200 pg/mL | 22100 pg/mL | 25900 pg/mL | 27600 pg/mL | 30000 pg/mL | 29800 pg/mL | 28500 pg/mL | 25700 pg/mL | 77700 pg/mL | 54500 pg/mL
3 | B3 | 25200 pg/mL | 19700 pg/mL | 20900 pg/mL | 22300 pg/mL | 23700 pg/mL | 26400 pg/mL | 26500 pg/mL | 27300 pg/mL | 77700 pg/mL | 49300 pg/mL
4 | B4 | 25200 pg/mL | 19700 pg/mL | 22300 pg/mL | 22200 pg/mL | 22900 pg/mL | 24400 pg/mL | 26000 pg/mL | 27500 pg/mL | 77700 pg/mL | 49300 pg/mL

Same assay, conditions: not given

Row | Binder | Granzyme B secretion, CD8 T cells, at 0.001 µM | Granzyme B secretion, CD8 T cells, at 0.01 µM | Granzyme B secretion, CD8 T cells, at 0.1 µM | Granzyme B secretion, CD8 T cells, at 1 µM | Granzyme B secretion, CD8 T cells, at 10 µM | Granzyme B secretion, CD8 T cells, at 100 µM | IFNγ secretion, CD8 T cells, at 0 µM | IFNγ secretion, CD8 T cells, at 0.0001 µM | IFNγ secretion, CD8 T cells, at 0.001 µM | IFNγ secretion, CD8 T cells, at 0.01 µM
5 | B1 | 49400 pg/mL | 55500 pg/mL | 58000 pg/mL | 80200 pg/mL | 87000 pg/mL | 99900 pg/mL | 122000 pg/mL | 91700 pg/mL | 105000 pg/mL | 122000 pg/mL
6 | B2 | 60900 pg/mL | 79000 pg/mL | 108000 pg/mL | 134000 pg/mL | 151000 pg/mL | 93300 pg/mL | 122000 pg/mL | 104000 pg/mL | 113000 pg/mL | 131000 pg/mL
7 | B3 | 45600 pg/mL | 48100 pg/mL | 55300 pg/mL | 72700 pg/mL | 84700 pg/mL | 94600 pg/mL | 122000 pg/mL | 96800 pg/mL | 99600 pg/mL | 107000 pg/mL
8 | B4 | 47300 pg/mL | 44200 pg/mL | 54800 pg/mL | 56300 pg/mL | 67100 pg/mL | 74300 pg/mL | 122000 pg/mL | 102000 pg/mL | 104000 pg/mL | 111000 pg/mL

Same assay, conditions: not given

Row | Binder | IFNγ secretion, CD8 T cells, at 0.1 µM | IFNγ secretion, CD8 T cells, at 1 µM | IFNγ secretion, CD8 T cells, at 10 µM | IFNγ secretion, CD8 T cells, at 100 µM | IL-1β secretion, LPS treated monocytes, at 0 µM | IL-1β secretion, LPS treated monocytes, at 0 µM (LPS only) | IL-1β secretion, LPS treated monocytes, at 0.0001 µM | IL-1β secretion, LPS treated monocytes, at 0.001 µM | IL-1β secretion, LPS treated monocytes, at 0.01 µM | IL-1β secretion, LPS treated monocytes, at 0.1 µM
9 | B1 | 129000 pg/mL | 134000 pg/mL | 143000 pg/mL | 143000 pg/mL | 6240 pg/mL | 6880 pg/mL | 5960 pg/mL | 6270 pg/mL | 5060 pg/mL | 6590 pg/mL
10 | B2 | 144000 pg/mL | 166000 pg/mL | 157000 pg/mL | 148000 pg/mL | 6240 pg/mL | 6880 pg/mL | 6290 pg/mL | 5570 pg/mL | 5260 pg/mL | 4020 pg/mL
11 | B3 | 114000 pg/mL | 130000 pg/mL | 134000 pg/mL | 134000 pg/mL | 6240 pg/mL | 6880 pg/mL | 6420 pg/mL | 6640 pg/mL | 5760 pg/mL | 6120 pg/mL
12 | B4 | 111000 pg/mL | 123000 pg/mL | 131000 pg/mL | 134000 pg/mL | 6240 pg/mL | 6880 pg/mL | 5540 pg/mL | 5550 pg/mL | 5370 pg/mL | 5290 pg/mL

Same assay, conditions: not given

Row | Binder | IL-1β secretion, LPS treated monocytes, at 1 µM | IL-1β secretion, LPS treated monocytes, at 10 µM | IL-1β secretion, LPS treated monocytes, at 100 µM | IL-9 secretion, CD8 T cells, at 0 µM | IL-9 secretion, CD8 T cells, at 0.0001 µM | IL-9 secretion, CD8 T cells, at 0.001 µM | IL-9 secretion, CD8 T cells, at 0.01 µM | IL-9 secretion, CD8 T cells, at 0.1 µM | IL-9 secretion, CD8 T cells, at 1 µM | IL-9 secretion, CD8 T cells, at 10 µM
13 | B1 | 5760 pg/mL | 6710 pg/mL | 8140 pg/mL | 1350 pg/mL | 918 pg/mL | 998 pg/mL | 1070 pg/mL | 1230 pg/mL | 1610 pg/mL | 1730 pg/mL
14 | B2 | 3660 pg/mL | 4140 pg/mL | 6480 pg/mL | 1350 pg/mL | 1060 pg/mL | 1120 pg/mL | 1160 pg/mL | 1420 pg/mL | 1780 pg/mL | 2150 pg/mL
15 | B3 | 5350 pg/mL | 5950 pg/mL | 6580 pg/mL | 1350 pg/mL | 941 pg/mL | 1000 pg/mL | 1120 pg/mL | 1340 pg/mL | 1400 pg/mL | 1680 pg/mL
16 | B4 | 5800 pg/mL | 5790 pg/mL | 7100 pg/mL | 1350 pg/mL | 933 pg/mL | 1120 pg/mL | 1140 pg/mL | 1070 pg/mL | 1220 pg/mL | 1440 pg/mL

Same assay, conditions: not given

Row | Binder | IL-9 secretion, CD8 T cells, at 100 µM
17 | B1 | 1880 pg/mL
18 | B2 | 1930 pg/mL
19 | B3 | 1710 pg/mL
20 | B4 | 1670 pg/mL
